Our source for the percent of molecules cross-linked values is publication doi:10.1101/2022.06.19.496727.

In the experiment the target is 8His-Smc3 with the J-head reporter cysteine (wild type trimer) (S. cerevisiae) (UniProt P47037). As to the kind of experiment: cross-linking.

The substance “Smc1 with the J-head reporter cysteine (wild type trimer) (from UniProt P32908 1-1225) (natural protein)” had a percent of molecules cross-linked of 70%.
